The source of these data is patent US20240158457A1 (published 2024).

Like-named read-outs stand apart in the source and are kept apart here. Where no end group is shown, it is not given here.

The target in experiment [1] is T1, IL-18Rα-Fc (CD218a protein, Fc tag; ECD 19-329; ACROBiosystems, Inc, Cat. No. IL1-H5259) (UniProt Q13478 19-329).
T1 chain: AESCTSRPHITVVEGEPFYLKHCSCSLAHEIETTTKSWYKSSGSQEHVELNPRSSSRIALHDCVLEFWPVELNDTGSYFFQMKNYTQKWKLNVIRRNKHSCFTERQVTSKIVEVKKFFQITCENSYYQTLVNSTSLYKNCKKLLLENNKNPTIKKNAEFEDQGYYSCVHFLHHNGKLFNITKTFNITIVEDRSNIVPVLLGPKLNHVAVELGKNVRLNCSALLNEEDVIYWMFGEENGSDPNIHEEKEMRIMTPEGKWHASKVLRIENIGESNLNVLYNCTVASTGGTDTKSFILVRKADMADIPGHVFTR
As to the kind of experiment: ELISA. A general note: ELISA stands for enzyme-linked immunosorbent assay.

Experiment [2] addresses T1, IL-18Rα-Fc (CD218a protein, Fc tag; ECD …). Nature of the experiment: ELISA.
Experiment [3] shares this target. Nature of the experiment: competition ELISA.
Experiment [4] has the same target. Nature of the experiment: competition ELISA; tracer 7C06(bn1713)/NA-HRP 75 nM.

As to GGFFECFYSPGHEWCIPSGG-biotin (cysteine pairing not given here) [biotinylated 7C06], in experiment [1], the concentration for a half-maximal effect (EC50) (usually the concentration at which the effect is half-maximal) was 0.26 nM.
Take GGICWVPFHYLDELMCTGG-biotin (cysteine pairing not given here) [biotinylated 4D07]: the EC50 in experiment [1] came out at 0.16 nM.
Take GGELCWRPFSFVDCEEGG-biotin (cysteine pairing not given here) [biotinylated alpha synthetic F1a Consensus Construct]: the midpoint of the response in experiment [2], the EC50, lay at 0.11 nM.
As for GGREDMECFWSPGQVWCIPSYLGG [10D09], the IC50 (in general, the point on the concentration scale where inhibition reaches its midpoint) in experiment [3] came out at 11 nM.
On to GGFFECFYSPGHEWCIPSGG [7C06], for which the IC50 in experiment [4] came out at 350 nM.
